In US6835382B2, “Ii peptide therapeutics to enhance antigen presentation” (University of Massachusetts, priority 1996, dated 2004):
Non-standard residues stand in square brackets, D forms with d. hArg = N=C(N)NCCCC[C@H](N)C(=O)O; Cit = NC(=O)NCCC[C@H](N)C(=O)O; Orn = NCCC[C@H](N)C(=O)O

Molecular target: T1, murine E^d MHC class II allele (Mus musculus, UniProt P01904+P01915)
T1 sequence (P01904 26-255): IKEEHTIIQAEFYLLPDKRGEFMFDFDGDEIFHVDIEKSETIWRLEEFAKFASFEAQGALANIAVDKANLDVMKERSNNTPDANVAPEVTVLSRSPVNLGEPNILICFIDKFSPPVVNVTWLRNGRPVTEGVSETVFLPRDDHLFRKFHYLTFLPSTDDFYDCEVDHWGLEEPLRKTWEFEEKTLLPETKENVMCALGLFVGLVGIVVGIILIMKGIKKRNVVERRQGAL
T1 sequence (P01915 27-264 limits assumed): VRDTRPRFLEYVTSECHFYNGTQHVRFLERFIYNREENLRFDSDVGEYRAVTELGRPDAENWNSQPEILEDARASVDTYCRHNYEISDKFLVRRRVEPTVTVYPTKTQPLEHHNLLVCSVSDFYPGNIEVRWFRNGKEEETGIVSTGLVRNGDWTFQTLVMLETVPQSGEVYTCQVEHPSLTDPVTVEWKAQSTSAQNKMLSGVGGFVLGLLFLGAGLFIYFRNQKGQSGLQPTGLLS
Assay: processed antigen assay, E^d allele (APC pulsed with native HEL)
Format: cell-based
Parameters: The A20 and CH27 B cell lymphoma lines express H-2^d and H-2^k alleles, respectively; endogenous in cells; host or cells: A20 B cell lymphoma (mitomycin C-treated or paraformaldehyde-fixed)
Settings: AE peptide 64 μM; for T cell response relative to baseline (None = 1.0), 5 μM HEL E^d, first value / T cell response relative to baseline (None = 1.0), 5 μM HEL E^d, second value / T cell response relative to baseline (None = 1.0), 10 μM HEL E^d, first value / T cell response relative to baseline (None = 1.0), 10 μM HEL E^d, second value / T cell response relative to baseline (None = 1.0), 20 μM HEL E^d, first value / T cell response relative to baseline (None = 1.0), 20 μM HEL E^d, second value: Table 29; for T cell response relative to baseline (None = 1.0), 5 μM HEL E^d, first value / T cell response relative to baseline (None = 1.0), 5 μM HEL E^d, second value: native HEL prepulse 5 μM; for T cell response relative to baseline (None = 1.0), 5 μM HEL E^d, first value / T cell response relative to baseline (None = 1.0), 10 μM HEL E^d, first value / T cell response relative to baseline (None = 1.0), 20 μM HEL E^d, first value: supernatant dilution 1:4 (first value); for T cell response relative to baseline (None = 1.0), 5 μM HEL E^d, second value / T cell response relative to baseline (None = 1.0), 10 μM HEL E^d, second value / T cell response relative to baseline (None = 1.0), 20 μM HEL E^d, second value: supernatant dilution 1:8 (second value); for T cell response relative to baseline (None = 1.00), E^d: Table 31; for Activity in processed antigen assay, E^d (baseline = 1.0): Table 34, native HEL 10 μM prepulse, supernatant 1:8
Description: In a third type of assay, the “processed antigen assay”, certain of the AE101 series of peptides inhibit stimulation of specific T cell hybridomas by antigenic peptides which are derived from the endogenous processing of a native protein antigen. This assay, which is related to the peptide prepulse assay, is performed by incubating APC with native protein antigen for 8 h, after which the pulsed APC are washed and treated with mitomycin C. Those pulsed APC are then combined with AE101 series peptides and T cell hybridomas and are incubated for 24 h. After that incubation, an aliquot of the culture supernatant is transferred to a second culture to measure T cell stimulation, as reflected in the effect of released interleukins on the growth of an interleukin-dependent, indicator cell line. During the 8 h incubation with native protein antigen, the protein antigen is taken into the APC. The native protein enters the processing pathway within the APC, where it is enzymatically cleaved to peptide fragments. Those peptide fragments with high affinity for the particular MHC class II molecules produced by the APC form antigenic peptide/MHC class II complexes which are transported to the cell surface. At the cell surface, the MHC class II molecules are contacted by the AE101 peptides, which cause the release of the antigenic peptide by the same mechanism proposed for the “peptide prepulse” assay above.
The “processed antigen assay” was carried out under essentially the same conditions as the “peptide prepulse assay”, with the following modifications. Untreated APC were incubated at 1×10^6/mL in 24-well plates (1 mL/well) with native protein antigen for 8 h. Following that incubation, the pulsed APC were washed, treated with mitomycin C, and washed again. AE101 series peptide was added at 64 μM, 16 μM, 4 μM, and 1 μM concentrations for 24 h in the presence of the T cell hybridoma specific for the antigenic peptide. Interleukin release from these cultures was measured by proliferation of HT-2 cells to interleukins in supernatants transferred from the primary culture. The baseline T cell response was measured by culturing T hybridoma cells with the native antigen-prepulsed APC in the absence of AE101 series peptides.
The “processed antigen assay” was carried out under essentially the same conditions as the “peptide prepulse” assay, with the following modifications. Untreated APC were incubated at 1×10^6/mL in 24-well plates (1 mL/well) with native protein antigen for 8 h. Following incubation, the pulsed APC were washed, treated with mitomycin C, and were washed again. The assay conditions were then as described for “peptide prepulse” above. The baseline T cell response was measured by culturing T hybridoma cells with the native antigen-prepulsed APC in the absence of AE101 peptides.
Table 2.9: Activities of substitution series at Leucine^80 in AE114 in a processed antigen assay. […] The results in this assay constitute, relatively, a mirror image of the result in the simultaneous assay (Example 1, Table 7) and parallel those of the antigenic peptide prepulse assay (Example 5, Table 24). Untreated APC were incubated with native HEL, instead of antigenic peptide, for 8 h. After incubation, the pulsed cells were washed and mitomycin C treated before being cocultured with AE-peptides and T cell hybridomas. Wells containing only T cells and native HEL-prepulsed APC were used to determine the Baseline response, or 1, in the absence of AE peptides. The concentration of AE peptide used was 64 μM for these assays. The supernatant dilutions used in the HT-2 cell assay were 1:4 (first value) and 1:8 (second value).

[1] = Table 30, native HEL prepulse 10 μM, supernatant dilution 1:8
[2] = native HEL prepulse 10 μM, supernatant dilution 1:4
[3] = Table 32, native HEL prepulse 20 μM, supernatant dilution 1:4
[4] = Table 33, native HEL prepulse 10 μM, supernatant dilution 1:8

Substance	T cell response relative to baseline (None = 1.0), 5 μM HEL E^d, first value	T cell response relative to baseline (None = 1.0), 5 μM HEL E^d, second value	T cell response relative to baseline (None = 1.0), 10 μM HEL E^d, first value (native HEL prepulse 10 μM)	T cell response relative to baseline (None = 1.0), 10 μM HEL E^d, second value (native HEL prepulse 10 μM)	T cell response relative to baseline (None = 1.0), 20 μM HEL E^d, first value (native HEL prepulse 20 μM)	T cell response relative to baseline (None = 1.0), 20 μM HEL E^d, second value (native HEL prepulse 20 μM)	T cell response relative to baseline (None = 1.00), E^d [2]	other results
Ac-LRLKYPk-NH2 [AE307]	–	–	–	–	–	–	–	T cell response relative to baseline (None = 1.0), E^d [1]: 0.48
Ac- (mL) RMKLPK-NH2 [AE174]	–	–	–	–	–	–	–	T cell response relative to baseline (None = 1.0), E^d [1]: 0.86
Ac-LRMKLPK-NH2 [AE114]	0.23,	0.37	0.29,	0.28	0.53,	0.44	0.49	T cell response relative to baseline (None = 1.0), E^d [1]: 0.22; T cell response relative to baseline (None = 1.0), E^d [3]: 0.40; T cell response relative to baseline (None = 1.0), E^d [4]: 0.37; Activity in processed antigen assay, E^d (baseline = 1.0): 0.22
Ac-LRMK K PK-NH2 (Ac-LRMKKPK-NH2) [AE229]	0.38,	0.58	0.55,	0.49	0.71,	0.62	–	–
Ac-LRMK HArg PK-NH2 (Ac-LRMK[hArg]PK-NH2; SMILES CSCC[C@H](NC(=O)[C@H](CCCNC(=N)N)NC(=O)[C@H](CC(C)C)NC(C)=O)C(=O)N[C@@H](CCCCN)C(=O)N[C@@H](CCCCNC(=N)N)C(=O)N1CCC[C@H]1C(=O)N[C@@H](CCCCN)C(N)=O) [AE227]	0.18,	0.33	0.18,	0.19	0.45,	0.36	0.35	–
Ac-LRMK M PK-NH2 (Ac-LRMKMPK-NH2) [AE236]	0.41,	0.58	0.56,	0.53	0.76,	0.72	–	–
Ac-L[Cit]MKNPK-NH2 [AE342]	–	–	–	–	–	–	0.64	–
Ac-LR HArg KLPK-NH2 [AE197]	–	–	–	–	–	–	–	T cell response relative to baseline (None = 1.0), E^d [3]: 0.45
Ac-LRMK (mL) PK-NH2 [AE175]	–	–	–	–	–	–	–	T cell response relative to baseline (None = 1.0), E^d [1]: 0.70
Ac-LRMK Y PK-NH2 (Ac-LRMKYPK-NH2; not fully specified; printed as Ac-LRMK Y PK-NH2) [AE235]	0.33,	0.38	0.42,	0.39	0.71,	0.56	0.53	T cell response relative to baseline (None = 1.0), E^d [1]: 0.19; T cell response relative to baseline (None = 1.0), E^d [3]: 0.46; T cell response relative to baseline (None = 1.0), E^d [4]: 0.45; Activity in processed antigen assay, E^d (baseline = 1.0): 0.19
Ac-Y[hArg]MKLPKSAK-NH2 [AE132]	–	–	–	–	–	–	–	T cell response relative to baseline (None = 1.0), E^d [3]: 0.48
Ac-ARMKNPK-NH2 [AE345]	–	–	–	–	–	–	0.81	–
Ac-LR[Orn]KLPK-NH2 [AE195]	–	–	–	–	–	–	0.31	–
Ac-LRMK Cit PK-NH2 (Ac-LRMK[Cit]PK-NH2; SMILES CSCC[C@H](NC(=O)[C@H](CCCNC(=N)N)NC(=O)[C@H](CC(C)C)NC(C)=O)C(=O)N[C@@H](CCCCN)C(=O)N[C@@H](CCCNC(N)=O)C(=O)N1CCC[C@H]1C(=O)N[C@@H](CCCCN)C(N)=O) [AE226]	0.60,	0.34	0.68,	0.58	0.95,	0.87	–	–
Ac-ARMKLPKSAK-NH2 [AE120]	–	–	–	–	–	–	0.51	–
Ac-LRNKNPK-NH2 [AE349]	–	–	–	–	–	–	0.64	–
Ac-ARNKNPK-NH2 [AE346]	–	–	–	–	–	–	0.78	–
Ac-L[Cit]NKLPK-NH2 [AE343]	–	–	–	–	–	–	0.69	–
Ac-Y[Cit]MKLPKSAK-NH2 [AE131]	–	–	–	–	–	–	0.49	–
Ac-LRMK E PK-NH2 (Ac-LRMKEPK-NH2) [AE231]	0.96,	0.85	0.94,	0.83	1.0	1.1	–	–
Ac-LRMK[Orn]PK-NH2 [AE225]	0.26,	0.38	0.32,	0.30	0.59,	0.48	–	–
